{
  "source": "paper PMC7076203",
  "target": "WT APP (amyloid precursor protein) stably expressed in H4-APPwt cells (human) (UniProt P05067)",
  "sequence (P05067 18-770)": "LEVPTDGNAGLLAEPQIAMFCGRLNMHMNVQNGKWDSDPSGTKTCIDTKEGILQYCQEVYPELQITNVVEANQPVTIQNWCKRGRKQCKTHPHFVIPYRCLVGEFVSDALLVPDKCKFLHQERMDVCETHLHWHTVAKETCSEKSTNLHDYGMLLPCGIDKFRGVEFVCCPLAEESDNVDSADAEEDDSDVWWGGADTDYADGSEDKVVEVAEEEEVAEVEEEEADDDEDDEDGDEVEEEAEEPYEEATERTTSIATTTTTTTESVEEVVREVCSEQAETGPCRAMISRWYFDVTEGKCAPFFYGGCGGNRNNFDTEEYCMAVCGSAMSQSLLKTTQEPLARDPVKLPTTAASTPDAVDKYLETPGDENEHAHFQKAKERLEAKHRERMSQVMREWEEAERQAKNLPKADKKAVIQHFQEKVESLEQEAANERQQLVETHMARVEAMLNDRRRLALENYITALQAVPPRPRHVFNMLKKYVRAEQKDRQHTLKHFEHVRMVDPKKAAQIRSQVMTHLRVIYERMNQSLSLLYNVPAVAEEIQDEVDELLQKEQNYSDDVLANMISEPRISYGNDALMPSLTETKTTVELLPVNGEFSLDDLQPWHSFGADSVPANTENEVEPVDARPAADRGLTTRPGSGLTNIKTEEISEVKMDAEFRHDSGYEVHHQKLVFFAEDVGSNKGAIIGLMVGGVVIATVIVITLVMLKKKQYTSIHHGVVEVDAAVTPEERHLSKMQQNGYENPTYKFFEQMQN",
  "data": [
    {"substance": "GAL3BP (preparation not stated) (from UniProt Q08380 19-585) (natural protein)", "values": [
      {"measurement": "suppression of Aβ40 and Aβ42 production in H4-APPwt cells by GAL3BP", "result": 30, "unit": "%"}
    ]}
  ]
}
